Experimental findings from PMC8715544 (JACS Au, 2021) are described below.

This data set concerns the molecule itself. As to the kind of experiment: SEC.

B1: Escherichia coli methionine adenosyltransferase eMAT (enzyme)
chain: MAKHLFTSESVSEGHPDKIADQISDAVLDAILEQDPKARVACETYVKTGMVLVGGEITTSAWVDIEEITRNTVREIGYVHSDMGFDANSCAVLSAIGKQSPDINQGVDRADPLEQGAGDQGLMFGYATNETDVLMPAPITYAHRLVQRQAEVRKNGTLPWLRPDAKSQVTFQYDDGKIVGIDAVVLSTQHSEEIDQKSLQEAVMEEIIKPILPAEWLTSATKFFINPTGRFVIGGPMGDCGLTGRKIIVDTYGGMARHGGGAFSGKDPSKVDRSAAYAARYVAKNIVAAGLADRCEIQVSYAIGVAEPTSIMVETFGTEKVPSEQLTLLVREFFDLRPYGLIQMLDLLHPIYKETAAYGHFGREHFPWEKTDKAQLLRDAAGLK
On to B1, for which the “stoichiometry N” value came out at 4.
